Measurements from patent US20240376207A1.
Where two headings read alike, the source gives them in different places.

Experiments:
Test in all cases: cell-based or functional assay
[1] = target: human PVRIG expressed on cells (human) (UniProt Q6DKI7)
[2] = target: human PVRIG expressed on cells (human) (UniProt Q6DKI7); remark: listed apart in the source
[3] = target: human PVRIG expressed on cells (human) (UniProt Q6DKI7); remark: listed apart in the source

human PVRIG expressed on cells (human), sequence (Q6DKI7 41-326 limits assumed, form in doubt): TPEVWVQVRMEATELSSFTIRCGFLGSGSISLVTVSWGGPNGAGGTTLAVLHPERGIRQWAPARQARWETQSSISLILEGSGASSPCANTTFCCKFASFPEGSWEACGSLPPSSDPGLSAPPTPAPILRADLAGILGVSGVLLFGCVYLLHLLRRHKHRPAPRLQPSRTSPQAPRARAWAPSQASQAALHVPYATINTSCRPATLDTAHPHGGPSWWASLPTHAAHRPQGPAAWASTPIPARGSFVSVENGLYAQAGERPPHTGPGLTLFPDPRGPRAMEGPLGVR

- MLR IFNγ (pg/mL), 4 nM antibody (control baseline) [1]: 984 pg/mL
- MLR IFNγ (pg/mL), 20 nM antibody (control baseline) [1]: 814 pg/mL
- MLR IFNγ (pg/mL), 100 nM antibody (control baseline) [1]: 1310 pg/mL
- MLR IFNγ (pg/mL), 20 nM antibody (control baseline) [3]: 74 pg/mL
- MLR IFNγ (pg/mL), 100 nM antibody (control baseline) [3]: 89 pg/mL
Substance: IgG4 (control antibody)
- NK92 killing of K562, killing activity (%), 20 nM antibody (control baseline) [1]: 22%
- NK92 killing of K562, killing activity (%), 100 nM antibody (control baseline) [1]: 22%
- NK92 killing of K562, killing activity (%), 4 nM antibody (control baseline) [2]: 11.2%
- NK92 killing of K562, killing activity (%), 20 nM antibody (control baseline) [2]: 11.7%
- NK92 killing of K562, killing activity (%), 100 nM antibody (control baseline) [2]: 9.2%
